Assay results: PMC2990918

Biological target: normal undigested taxol microtubules (αβ-MTs) of porcine brain tubulin (porcine (brain)) (UniProt P02550)
Test: co-sedimentation

CLIP-170 MT-binding domain fragment H1^1–350 (from UniProt P30622 1-350) (domain or fragment)
Kd: 510 nM
percent dissociated at 100 mM NaCl: 30%
